In publication PMC12405362:

Substrate: O=C(/C=C/c1ccc(O)c(O)c1)O[C@@H]1C[C@](O)(C(=O)O)C[C@@H](O)[C@H]1O
Assay: purified protein
Conditions: tri-buffer (0.1 M acetic acid, 0.1 M Tris, 20 mM MES) pH 6, 30°C, 15 min, hydrolysis

B1: CiCQE3 (Cichorium intybus) (protein)
chain: CYPSIISFGDSLADTGNVKEMASKSNVHAPHFLFPPYGETFFNKPTGRCSNGRLIIDFVAESLGLPLIPPSLGSKTNVHVTGLGQGVNYAVAGATALDSSFHEERGVEIWTNASLGVQLGWFKDSLSSICSSVADCRQLIGQSLVLMGEIGGNDYNHALVAGKSIDEVETYVPFVINTIVSAVNELIELGAETLVIPGNLPIGCSAAYLTIFYGSSEVQYDNSTGCIITLNKLAEYHNEFLQKKLHQIRELHPDVNIIYADYYNAAMQFFRSPNKYGFTNGALKACCGGGGPFNYNPSIDCADPASTSCAQPDTYVNWDGLHLTEAAYRVIFKSIFEGSYTTPRFNALCPTSMLQGVGGFSSSI
B1 was tested, and the Km was 1740 µM and the kcat was 0.466 s⁻¹.
